T1: Human TROP-2/TACSTD2 Protein, His Tag (带有His标签的人滋养层细胞表面抗原2(Trop2)胞外段蛋白) (human, UniProt P09758 27-274)
T1 construct: extracellular domain; Bought protein; also called Trop2-His; Trop2抗原; not shown: His tag
T1 sequence (looked up): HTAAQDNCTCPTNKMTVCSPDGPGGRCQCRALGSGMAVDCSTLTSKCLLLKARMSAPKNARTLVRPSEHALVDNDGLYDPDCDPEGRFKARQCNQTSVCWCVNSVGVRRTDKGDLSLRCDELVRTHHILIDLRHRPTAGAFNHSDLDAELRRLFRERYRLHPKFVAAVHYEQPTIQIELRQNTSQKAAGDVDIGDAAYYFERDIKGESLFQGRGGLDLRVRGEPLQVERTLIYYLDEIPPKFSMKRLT

B1: T3单克隆抗体 (T3抗Trop2单克隆抗体) (antibody, human IgG1, kappa, V domains shown)
VH: EVQLVQSGGGLVQPGGSLRLSCEDSGFTFSSYWMSWVRQAPGKGLEWVSSISSSSSYIYYADSVKGRFTISRDNAKNSLYLQMNSLRGEDTAVYYCAREQSSSGFDYWGQGTLVTVSS
VL: DIQMTQSPSTLSASVGDRVTITCRASQSISSWLAWYQQKPGKAPKLLIYKASSLESGVPPRFSGSGSGAEFTLTISSLQPDDFATYYCQQYNSYPLTFGGGTKVEVKR
notes: also called Trop2抗体
B2: 抗Trop2阳性克隆3 (T3), scFv displayed on phage (scFv)
scFv: DIQMTQSPSTLSASVGDRVTITCRASQSISSWLAWYQQKPGKAPKLLIYKASSLESGVPPRFSGSGSGAEFTLTISSLQPDDFATYYCQQYNSYPLTFGGGTKVEVKGGGGSGGGGSGGGGSEVQLVQSGGGLVQPGGSLRLSCEDSGFTFSSYWMSWVRQAPGKGLEWVSSISSSSSYIYYADSVKGRFTISRDNAKNSLYLQMNSLRGEDTAVYYCAREQSSSGFDYWGQGTLVTVSS
notes: Tested as phage supernatant (scFv on M13 phage); also called T3单克隆; T3抗Trop2 scFv

Tests used:
[1] = molecular target: Trop2 on the surface of tumour cell lines (H1975, MDA-MB-231, Bxpc3, T24, PC-9) (UniProt P09758); experiment: flow cytometry on MDA-MB-231 cells, antibody 5ug/ml, anti-Fc PE; blank cells without antibody MFI 938
[2] = molecular target: T1, Human TROP-2/TACSTD2 Protein, His Tag …; experiment: ELISA, Trop2-His coated at 1ug/ml, antibody diluted 3.3-fold from 5ug/ml, anti-human IgG-Fc HRP
[3] = molecular target: Trop2 on the surface of tumour cell lines (H1975, MDA-MB-231, Bxpc3, T24, PC-9) (UniProt P09758); experiment: flow cytometry on H1975 cells, antibody 5ug/ml, anti-Fc PE; blank cells without antibody MFI 621
[4] = molecular target: Trop2 on the surface of tumour cell lines (H1975, MDA-MB-231, Bxpc3, T24, PC-9) (UniProt P09758); experiment: flow cytometry on Bxpc3 cells, antibody 5ug/ml, anti-Fc PE; blank cells without antibody MFI 557
[5] = molecular target: T1, Human TROP-2/TACSTD2 Protein, His Tag …; experiment: phage ELISA, Trop2-His coated at 1ug/ml, anti-M13-HRP, OD450

Row | Binder | MFI (Median fluorescence intensity) [1] | binding result [2] | MFI (Median fluorescence intensity) [3] | MFI (Median fluorescence intensity) [4] | binding result [5]
1 | B1 | 3150 | binds | 65600 | 174000 | 
2 | B2 |  |  |  |  | binds
